Earlier results in PMC3369218 (Biochemistry, 2012).

Conditions: for E′ (Fe^3+/Fe^2+): 25 °C, pH 7

Molecule | reduction potential | E′ (Fe^3+/Fe^2+)
Cld from I. dechloratans: chlorite dismutase from Ideonella dechloratans (protein, UniProt Q9F437 39-285, looked up) Chlorite dismutase: AMNTPVDRAKILSAPGVFVAFSTYKIRPDYFKVALAERKGAADEVMAVLEKHKEKVIVDAYLTRGYEAKSDYFLRVHAYDAVAAQAFLVDFRATRFGMYSDVTESLVGITKALNYISKDKSPDLNKGLSGATYAGDAPRFAFMIPVKKNADWWNLTDEQRLKEMETHTLPTLPFLVNVKRKLYHSTGLDDTDFITYFETNDLGAFNNLMLSLAKVPENKYHVRWGNPTVLGTIQPIENLVKTLSMGN | –21 mV | –0.021 V vs NHE
WT CcP from S. cerevisiae: wild-type cytochrome c peroxidase (protein, UniProt P00431 68-361, looked up) Cytochrome c peroxidase, …: TTPLVHVASVEKGRSYEDFQKVYNAIALKLREDDEYDNYIGYGPVLVRLAWHTSGTWDKHDNTGGSYGGTYRFKKEFNDPSNAGLQNGFKFLEPIHKEFPWISSGDLFSLGGVTAVQEMQGPKIPWRCGRVDTPEDTTPDNGRLPDADKDADYVRTFFQRLNMNDREVVALMGAHALGKTHLKNSGYEGPWGAANNVFTNEFYLNLLNEDWKLEKNDANNEQWDSKSGYMMLPTDYSLIQDPKYLSIVKEYANDQDKFFKDFSKAFEKLLENGITFPKDAPSPFIFKTLEEQGL | – | –0.189 V vs NHE
CcP(R48K) from S. cerevisiae: cytochrome c peroxidase R48K distal pocket mutant (protein, UniProt P00431 68-361, looked up, variant R48K) Cytochrome c peroxidase, …: TTPLVHVASVEKGRSYEDFQKVYNAIALKLREDDEYDNYIGYGPVLVKLAWHTSGTWDKHDNTGGSYGGTYRFKKEFNDPSNAGLQNGFKFLEPIHKEFPWISSGDLFSLGGVTAVQEMQGPKIPWRCGRVDTPEDTTPDNGRLPDADKDADYVRTFFQRLNMNDREVVALMGAHALGKTHLKNSGYEGPWGAANNVFTNEFYLNLLNEDWKLEKNDANNEQWDSKSGYMMLPTDYSLIQDPKYLSIVKEYANDQDKFFKDFSKAFEKLLENGITFPKDAPSPFIFKTLEEQGL | – | –0.186 V vs NHE
